B1: GFP-RhoBTB1 [human] / myc-ROCK1^1–727 [human] (parent complex)
chain 1: MDADMDYERPNVETIKCVVVGDNAVGKTRLICARACNTTLTQYQLLATHVPTVWAIDQYRVCQEVLERSRDVVDEVSVSLRLWDTFGDHHKDRRFAYGRSDVVVLCFSIANPNSLNHVKSMWYPEIKHFCPRTPVILVGCQLDLRYADLEAVNRARRPLARPIKRGDILPPEKGREVAKELGLPYYETSVFDQFGIKDVFDNAIRAALISRRHLQFWKSHLKKVQKPLLQAPFLPPKAPPPVIKIPECPSMGTNEAACLLDNPLCADVLFILQDQEHIFAHRIYLATSSSKFYDLFLMECEESPNGSEGACEKEKQSRDFQGRILSVDPEEEREEGPPRIPQADQWKSSNKSLVEALGLEAEGAVPETQTLTGWSKGFIGMHREMQVNPISKRMGPMTVVRMDASVQPGPFRTLLQFLYTGQLDEKEKDLVGLAQIAEVLEMFDLRMMVENIMNKEAFMNQEITKAFHVRKANRIKECLSKGTFSDVTFKLDDGAISAHKPLLICSCEWMAAMFGGSFVESANSEVYLPNINKISMQAVLDYLYTKQLSPNLDLDPLELIALANRFCLPHLVALAEQHAVQELTKAATSGVGIDGEVLSYLELAQFHNAHQLAAWCLHHICTNYNSVCSKFRKEIKSKSADNQEYFERHRWPPVWYLKEEDHYQRVKREREKEDIALNKHRSRRKWCFWNSSPAVA
chain 2: MSTGDSFETRFEKMDNLLRDPKSEVNSDCLLDGLDALVYDLDFPALRKNKNIDNFLSRYKDTINKIRDLRMKAEDYEVVKVIGRGAFGEVQLVRHKSTRKVYAMKLLSKFEMIKRSDSAFFWEERDIMAFANSPWVVQLFYAFQDDRYLYMVMEYMPGGDLVNLMSNYDVPEKWARFYTAEVVLALDAIHSMGFIHRDVKPDNMLLDKSGHLKLADFGTCMKMNKEGMVRCDTAVGTPDYISPEVLKSQGGDGYYGRECDWWSVGVFLYEMLVGDTPFYADSLVGTYSKIMNHKNSLTFPDDNDISKEAKNLICAFLTDREVRLGRNGVEEIKRHLFFKNDQWAWETLRDTVAPVVPDLSSDIDTSNFDDLEEDKGEEETFPIPKAFVGNQLPFVGFTYYSNRRYLSSANPNDNRTSSNADKSLQESLQKTIYKLEEQLHNEMQLKDEMEQKCRTSNIKLDKIMKELDEEGNQRRNLESTVSQIEKEKMLLQHRINEYQRKAEQENEKRRNVENEVSTLKDQLEDLKKVSQNSQLANEKLSQLQKQLEEANDLLRTESDTAVRLRKSHTEMSKSISQLESLNRELQERNRILENSKSQTDKDYYQLQAILEAERRDRGHDSEMIGDLQARITSLQEEVKHLKHNLEKVEGERKEAQDMLNHSEKEKNNLEIDLNYKLKSLQQRLEQEVNEHKVTKARLTDKHQSIEEAKSVAMCEMEKKLKEEREAR

Variants of: B1
Assay: co-immunoprecipitation (GFP-trap) with band density quantification; COS7 cells, 24 h after transfection; three independent experiments; parent: 1.1; read off a plot

response	Variant
~1.1 relative value myc IP/GFP IP	chain 1 R60A, chain 1 C62A, chain 1 E64A
~1.5 relative value myc IP/GFP IP	chain 1 E64A
~1.2 relative value myc IP/GFP IP	chain 1 E64A, chain 1 K197A, chain 1 D198A
~2 relative value myc IP/GFP IP	chain 1 E64A, chain 1 K197A

Variants of: B1
Assay: co-immunoprecipitation (GFP-trap) with band density quantification; COS7 cells, 24 h after transfection; five independent experiments; parent: 0.52; read off a plot

response	Variant
~0.48 relative value myc IP/GFP IP	chain 1 K197A
~0.63 relative value myc IP/GFP IP	chain 1 D198A
~1.4 relative value myc IP/GFP IP	chain 1 E64A, chain 1 K197A

Source: PMC6744581 (2019)
